Test results as given in PMC4641746 (Cell, 2015).

What was measured:
[1] = biological target: Y46K/V66D mutant of H84T BanLec (recombinant, His-tagged) (Musa acuminata); test: 15N NMR spin relaxation
[2] = biological target: Y46K/V66D mutant of WT BanLec (recombinant, His-tagged) (Musa acuminata); test: 15N NMR spin relaxation
[3] = biological target: T1, BanLec (banana lectin), recombinant His-tagged WT (Musa acuminata, UniProt O22321, H84T); test: isothermal titration calorimetry; type: binding; settings: dimannoside linkage not printed in main text
T1 sequence (O22321 1-141 H84T): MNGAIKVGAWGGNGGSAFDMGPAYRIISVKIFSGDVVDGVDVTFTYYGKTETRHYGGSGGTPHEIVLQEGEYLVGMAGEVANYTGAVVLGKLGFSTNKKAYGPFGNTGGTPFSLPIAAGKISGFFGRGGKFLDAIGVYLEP

Y46K/V66D mutant of H84T BanLec (recombinant, His-tagged) (natural protein)
stoichiometry N [1]: 2

Y46K/V66D mutant of WT BanLec (recombinant, His-tagged) (natural protein)
stoichiometry N [2]: 2

dimannoside [M2]
Ka [3]: 227
